How the values were obtained:
Experiment in all cases: specificity ELISA on coated antigen (88 ng per well), antibody at 2 µg/mL, ABS650
hAgr2 = molecular target: T1, hAgr2 (human, UniProt O95994)
T1 construct: panel antigen of the specificity ELISA
T1 sequence (antigen, looked up): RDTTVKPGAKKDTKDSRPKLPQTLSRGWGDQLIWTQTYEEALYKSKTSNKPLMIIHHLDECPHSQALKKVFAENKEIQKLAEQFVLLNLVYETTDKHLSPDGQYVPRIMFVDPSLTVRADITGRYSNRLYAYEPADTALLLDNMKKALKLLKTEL
Experimental: (§1) For specificity ELISAs on purified human and mouse IgGs, a 384-well plate was coated with a panel of purified human or mouse antigens at 88 ng per well and incubated overnight at 4° C. The plate was blocked and washed as described above, then 22 μL of purified mouse or human anti-PCSK9 antibody diluted to 2 μg/mL in PBS was added to each well. The plate was incubated for 1 hr at 37° C. then washed with PBST. Anti-mouse Fc antibody (Jackson ImmunoResearch Labs #115-035-071) or anti-human kappa antibody (Sigma #A7164) conjugated to HRP was diluted 1:5000 in PBS (25 μL) and added to each well. The plate was incubated for 1 hr at room temperature, then washed and developed as described above.
(§2) In order to test whether the antigen specificity of the parental mouse antibody LFU720 was retained in the final Humaneered™ IgGs, LGT209, LGT210 and LGT211, binding of the antibodies to a panel of human and mouse antigens (as well as human PCSK9) was tested in an ELISA assay.

hFGFR4 = molecular target: T2, hFGFR4 (human, UniProt P22455)
T2 construct: panel antigen of the specificity ELISA
T2 sequence (antigen, looked up): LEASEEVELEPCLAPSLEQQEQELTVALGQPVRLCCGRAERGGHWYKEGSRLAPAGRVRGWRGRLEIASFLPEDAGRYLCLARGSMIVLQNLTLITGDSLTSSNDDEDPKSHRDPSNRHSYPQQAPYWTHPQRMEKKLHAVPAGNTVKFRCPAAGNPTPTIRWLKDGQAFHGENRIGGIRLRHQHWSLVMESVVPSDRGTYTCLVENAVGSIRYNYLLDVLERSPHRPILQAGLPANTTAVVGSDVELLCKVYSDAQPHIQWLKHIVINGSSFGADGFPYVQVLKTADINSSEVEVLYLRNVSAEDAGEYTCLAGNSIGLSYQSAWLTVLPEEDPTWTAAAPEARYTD
Experimental: as §1, §2

hTrkB = molecular target: T3, hTrkB (human, UniProt Q16620)
T3 construct: panel antigen of the specificity ELISA
T3 sequence (Q16620 32-430 limits assumed): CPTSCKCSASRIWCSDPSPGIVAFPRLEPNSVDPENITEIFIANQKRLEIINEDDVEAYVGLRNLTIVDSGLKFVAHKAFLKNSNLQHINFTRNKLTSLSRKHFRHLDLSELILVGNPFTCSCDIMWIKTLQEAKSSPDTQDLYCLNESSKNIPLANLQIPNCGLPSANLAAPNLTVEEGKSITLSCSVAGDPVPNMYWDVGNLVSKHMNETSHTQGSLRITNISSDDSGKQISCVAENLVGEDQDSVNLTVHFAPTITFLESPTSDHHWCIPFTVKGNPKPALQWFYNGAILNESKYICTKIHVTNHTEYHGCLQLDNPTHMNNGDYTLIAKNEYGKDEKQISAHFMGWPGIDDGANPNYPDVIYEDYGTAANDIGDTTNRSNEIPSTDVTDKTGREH
Experimental: as §1, §2

hDDR1 = molecular target: T4, hDDR1 (human, UniProt Q08345)
T4 construct: panel antigen of the specificity ELISA
T4 sequence (Q08345 21-416 limits assumed): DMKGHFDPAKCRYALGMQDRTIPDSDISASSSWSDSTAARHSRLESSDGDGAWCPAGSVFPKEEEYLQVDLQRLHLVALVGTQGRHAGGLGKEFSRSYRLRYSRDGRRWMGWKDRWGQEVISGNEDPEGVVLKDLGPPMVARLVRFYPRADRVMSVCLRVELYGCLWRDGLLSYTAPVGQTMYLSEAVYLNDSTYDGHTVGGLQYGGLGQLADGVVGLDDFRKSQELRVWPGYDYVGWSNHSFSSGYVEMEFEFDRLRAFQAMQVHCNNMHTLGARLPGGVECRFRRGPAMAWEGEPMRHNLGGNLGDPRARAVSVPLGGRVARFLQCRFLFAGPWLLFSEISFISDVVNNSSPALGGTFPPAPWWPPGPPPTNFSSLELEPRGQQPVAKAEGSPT
Experimental: as §1, §2

hIL-12RB1 = molecular target: T5, hIL-12RB1 (human, UniProt P42701)
T5 construct: panel antigen of the specificity ELISA
Experimental: as §1, §2

hβ-Klotho = molecular target: T6, hβ-Klotho (human, UniProt Q86Z14)
T6 construct: panel antigen of the specificity ELISA
T6 sequence (antigen, looked up): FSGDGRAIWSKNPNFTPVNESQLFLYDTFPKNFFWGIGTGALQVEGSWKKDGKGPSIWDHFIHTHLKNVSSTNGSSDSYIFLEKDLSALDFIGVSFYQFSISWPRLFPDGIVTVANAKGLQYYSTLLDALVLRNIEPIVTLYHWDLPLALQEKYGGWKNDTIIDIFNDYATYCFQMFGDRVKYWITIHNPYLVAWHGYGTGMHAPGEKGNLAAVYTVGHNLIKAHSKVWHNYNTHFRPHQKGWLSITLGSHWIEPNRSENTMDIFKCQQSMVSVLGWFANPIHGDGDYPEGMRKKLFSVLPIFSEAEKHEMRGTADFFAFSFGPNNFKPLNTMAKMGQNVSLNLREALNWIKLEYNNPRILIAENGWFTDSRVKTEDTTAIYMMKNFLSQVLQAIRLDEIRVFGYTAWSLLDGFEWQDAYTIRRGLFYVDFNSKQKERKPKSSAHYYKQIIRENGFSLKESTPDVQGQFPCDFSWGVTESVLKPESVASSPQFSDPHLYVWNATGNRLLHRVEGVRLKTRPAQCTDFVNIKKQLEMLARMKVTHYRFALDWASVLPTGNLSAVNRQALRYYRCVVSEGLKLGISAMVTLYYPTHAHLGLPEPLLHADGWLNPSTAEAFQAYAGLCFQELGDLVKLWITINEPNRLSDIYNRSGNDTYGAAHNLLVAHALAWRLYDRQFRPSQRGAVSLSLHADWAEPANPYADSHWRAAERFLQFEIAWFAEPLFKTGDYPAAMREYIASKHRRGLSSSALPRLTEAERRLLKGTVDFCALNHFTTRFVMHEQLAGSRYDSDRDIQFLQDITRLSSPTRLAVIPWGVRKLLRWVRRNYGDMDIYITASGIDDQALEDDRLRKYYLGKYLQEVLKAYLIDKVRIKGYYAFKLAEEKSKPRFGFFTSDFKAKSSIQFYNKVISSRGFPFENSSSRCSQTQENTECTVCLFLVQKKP
Experimental: as §1, §2

hRspo-2 = molecular target: T7, hRspo-2 (human, UniProt Q6UXX9)
T7 construct: panel antigen of the specificity ELISA
T7 sequence (Q6UXX9 22-243 limits assumed): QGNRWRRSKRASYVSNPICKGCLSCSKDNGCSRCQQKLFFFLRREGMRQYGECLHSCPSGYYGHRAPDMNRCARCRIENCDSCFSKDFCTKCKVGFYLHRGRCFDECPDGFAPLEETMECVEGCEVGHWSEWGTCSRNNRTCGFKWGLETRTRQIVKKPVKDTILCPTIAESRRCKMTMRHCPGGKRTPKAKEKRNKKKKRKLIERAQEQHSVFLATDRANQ
Experimental: as §1, §2

hGITR = molecular target: T8, hGITR (human, UniProt Q9Y5U5)
T8 construct: panel antigen of the specificity ELISA
T8 sequence (antigen, looked up): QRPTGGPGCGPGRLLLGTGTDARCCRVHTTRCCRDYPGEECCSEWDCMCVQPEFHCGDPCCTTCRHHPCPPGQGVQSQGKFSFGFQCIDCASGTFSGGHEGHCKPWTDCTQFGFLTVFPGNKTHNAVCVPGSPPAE
Experimental: as §1, §2

Measured: binding result

B1: NVP-LGT211 (antibody, human IgG1, V domains shown)
VH: QVQLVQSGAEVKKPGASVKVSCKASGYTFSTMYMSWVRQAPGQGLEWMGRIDPANEHTNYAQKFQGRVTMTRDTSISTAYMELSRLTSDDTAVYYCARSYYYYAMDYWGQGTLVTVSS
VL: QIVLTQSPATLSVSPGERATLSCRASQSVSYMHWYQQKPGQAPRLLIYGVFRRATGIPDRFSGSGSGTDFTLTIGRLEPEDFAVYYCLQWSSDPPTFGQGTKLEIKR
notes: Silent human IgG1 kappa; also called pSR74 (Vh) + pJG10 (Vk); pSR074 + pJG10
no binding (tested: 2 µg/mL): hAgr2 | hFGFR4 | hTrkB | hDDR1 | hIL-12RB1 | hβ-Klotho | hRspo-2 | hGITR

B2: NVP-LFU720 (antibody, V domains shown)
VH: EVQLQQSGAELMKPGASVKLSCTASGFNIKDMYMSWVRQRPEQGLEWIGRIDPANGHTNYDPKFQAKATITTDTSSKTAYLHLSSLTSEDTAVYYCARSYYYYAMDYWGQGTSVTVSS
VL: QIVLTQSPAIMSASPGEKVTMTCSASSSVSYMHWYQQKPGSSPRLWIYLTFNLASGVPARFSGSGSGTSYSLSISSMEAEDAATYYCLQWSSDPPTFGSGTKLEIK
notes: Murine anti-human Pcsk9 IgG1-kappa monoclonal antibody from a hybridoma; also called 5P20; NVP-LFU720-AX-1
no binding (tested: 2 µg/mL): hAgr2 | hFGFR4 | hTrkB | hDDR1 | hIL-12RB1 | hβ-Klotho | hRspo-2 | hGITR
